Patent US11767353B2, “Trail compositions with reduced immunogenicity” (Theraly Fibrosis, Inc., priority 2020, dated 2023)
Where two headings read alike, the source gives them in different places.

Tests used:
[1] = in mice; cited from earlier work
ASPC-1/PSC xenografts = test: PSC/ASPC-1 subcutaneous xenograft in athymic nude mice; assay type: in vivo; details: TLY012 IV 10 mg/kg every other day and/or sorafenib 20 mg/kg oral everyday for 2 weeks
Protocol: Six-week-old athymic nude mice were anesthetized for all procedures 5×10^6ASPC-1 cells (human pancreas adenocarcinoma ascites metastasis cell line derived from nude mouse xenografts initiated with cells from the ascites of a patient with cancer of the pancreas) were mixed with 5×10^4 PSC cells and injected in a subcutaneous in athymic nude mice. Before injection, the cells were trypsinized, counted, washed twice in 1×PBS and resuspended in 100 μl of Matrigel® matrix (Corning), and injected between the scapulae. Two weeks after the tumor transplantation, mice were injected with TLY012 via intravenous (IV) injection (10 mg/kg, every other day) for 2 weeks, while control mice received PBS. Western blot was performed on tissue extracts with antibodies against GAPDH (Santa Cruz 5 Biotechnology, sc-1694), α-SMA (Sigma, A2547), GRP78 (Santa Cruz Biotechnology, sc-13968), DR4 (Abcam, Cambridge, Mass., #13890), DR5 (Abcam, #47179), PDGF-Rb (Santa Cruz Biotechnology, sc-432), and Cl.PARP-1 (Cell Signaling Technology, #5625).
Comparative quantitative RT-PCR (qPCR) was performed in the tumor sample for fibrogenic markers. qPCR was performed in triplicate for each sample using fast SYBR Green Master Mix (Thermo Fisher Scientific) and StepOnePlus Real-Time PCR System (Thermo Fisher Scientific). The expression levels of target genes were normalized to the expression of 18s and calculated based on the comparative cycle threshold Ct method (2^−ΔΔCt).
Collagen deposition was detected with Masson's Trichrome staining and microscopy.
Mouse xenografts were generated as in Example 8. Two weeks after the tumor transplantation, mice were injected with TLY012 via intravenous (IV) injection (10 mg/kg, every other day) and/or sorafenib (20 mg/kg, oral everyday) for 2 weeks. The mice were euthanized when the tumor volume reached 1500 mm^3 and images of the excised xenografts recorded and tumor weight measured.

[2] = in rodents; cited from earlier work
[3] = in apes; cited from earlier work

Compound | circulating half-life [1] [h] | other results
2K-PEG-TRAIL: 2K PEG derivatized TRAIL reported by Kim et al. 2011a | 3.9 | –
30K-PEG-TRAIL: 30K PEG derivatized TRAIL reported by Kim et al. 2011a | 17.7 | –
10K-PEG-TRAIL: 10K PEG derivatized TRAIL reported by Kim et al. 2011a | 6.2 | –
5K-PEG-TRAIL: 5K PEG derivatized TRAIL reported by Kim et al. 2011a | 5.3 | –
CNC(=O)c1cc(Oc2ccc(NC(=O)Nc3ccc(Cl)c(C(F)(F)F)c3)cc2)ccn1 [Sorafenib, reference compound] | – | tumor weight, Mean (ASPC-1/PSC xenografts): 967 mg
20K-PEG-TRAIL: 20K PEG derivatized TRAIL reported by Kim et al. 2011a | 12.3 | –
TRAIL: Tumor necrosis factor-related apoptosis-inducing ligand, unmodified, literature values | 1.1 | half-life [2]: several minutes; half-life [3]: about 30 minutes
